Laboratory results as given in US20230056815A1.

Experiments:
Experiment in all cases: cell-based or functional assay
[1] = target: cynomolgus monkey soluble FLT3L (cynomolgus monkey)
[2] = target: mouse soluble FLT3L (mouse) (UniProt P49772)
[3] = target: human soluble FLT3L (recombinant huFLT3L) (human) (UniProt P49771)
human soluble FLT3L (recombinant huFLT3L) (human), sequence (P49771 27-184): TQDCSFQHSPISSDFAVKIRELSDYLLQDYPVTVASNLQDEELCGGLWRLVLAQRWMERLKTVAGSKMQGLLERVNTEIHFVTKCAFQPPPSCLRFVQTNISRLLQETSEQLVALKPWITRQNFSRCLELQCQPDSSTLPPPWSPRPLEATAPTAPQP

mouse soluble FLT3L (mouse), sequence (P49772 27-189): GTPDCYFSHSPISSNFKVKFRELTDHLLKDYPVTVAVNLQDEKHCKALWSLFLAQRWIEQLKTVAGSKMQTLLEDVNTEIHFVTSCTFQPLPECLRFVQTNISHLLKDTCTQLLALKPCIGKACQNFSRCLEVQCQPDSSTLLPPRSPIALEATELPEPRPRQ

IC50 (nM), inhibition of FLT3 downregulation on RS4;11 cells [1]: 0.1 nM
IC50 (nM), inhibition of FLT3 downregulation on RS4;11 cells [2]: 0.12 nM
IC50 (nM) against 0.476 nM FLT3L, ERK phosphorylation in CD133+ stem cells [3]: 0.19 nM
IC50 (nM) against 0.476 nM FLT3L, MEK phosphorylation in CD133+ stem cells [3]: 0.19 nM
IC50 (nM), inhibition of FLT3 downregulation on RS4;11 cells [3]: 0.04 nM
Substance: commercially available mouse anti-human FLT3L monoclonal antibody (MAB608, R&D Systems)
